The values that follow come from US20170335004A1 (LA TROBE UNIVERSITY, published 2017).

As usually defined, the Kd is the free concentration of one partner at which half of the binding sites on the other are occupied at equilibrium, for simple one-to-one binding. A lower Kd goes with tighter binding. By koff is commonly meant the first-order rate constant of dissociation. Read a high koff as a short-lived complex. One may read the kon as the second-order rate constant of association. A higher kon goes with faster complex formation.

One assay addresses T1, BSA (bovine, UniProt P02769).
T1 construct: also called bovine serum albumin
Description: ELISA of purified hFab 6.5 on a panel of coated antigens, absorbance 450 nm.

Assay [1] deals with T2, hFn14-Fc (Fc-tagged ectodomain of human Fn14) (human, UniProt Q9NP84 29-78).
T2 construct: also called Fc-tagged hFn14; not shown: Fc tag
Description: SPR (ProteOn XPR36), hFab amine-coupled, hFn14-Fc as analyte, Langmuir fit, average of 5 measurements. As to the method:
The affinity of wildtype Fab clone 6.5 and the light chain shuffled mutants was measured by surface Plasmon resonance (SPR) using the ProteOn XPR36TM instrument (BioRad). Individual channels of a six channel GLC chip were coupled with the relevant hFab ligand at 5 μg/ml in 0.1M sodium acetate buffer pH 4.5 using amine coupling according to the manufacturer's instructions. Five dilutions of analyte hFn14-Fc were prepared in PBS containing 0.005% Tween20 (running buffer) and allowed to flow over the coupled hFab at […] flow rate for 500 seconds to evaluate the “on rate” (ka). This was followed by flow with the running buffer for 1200 seconds to evaluate the “off rate” (kd). This process was repeated until the analyte dilution series allowed a good kinetic fit using the Langmuir statistical model for analysing the ka and kd, where the affinity constant (KD) is the kd/ka. The best fit data was analysed using the ProteOn software measured by Chi2, where the lowest value is the best fit of the model to the SPR binding curves.

T2 sequence (Q9NP84 29-78): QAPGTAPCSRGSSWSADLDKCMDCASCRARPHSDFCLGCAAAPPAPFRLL
T1 sequence (P02769 25-607 limits assumed): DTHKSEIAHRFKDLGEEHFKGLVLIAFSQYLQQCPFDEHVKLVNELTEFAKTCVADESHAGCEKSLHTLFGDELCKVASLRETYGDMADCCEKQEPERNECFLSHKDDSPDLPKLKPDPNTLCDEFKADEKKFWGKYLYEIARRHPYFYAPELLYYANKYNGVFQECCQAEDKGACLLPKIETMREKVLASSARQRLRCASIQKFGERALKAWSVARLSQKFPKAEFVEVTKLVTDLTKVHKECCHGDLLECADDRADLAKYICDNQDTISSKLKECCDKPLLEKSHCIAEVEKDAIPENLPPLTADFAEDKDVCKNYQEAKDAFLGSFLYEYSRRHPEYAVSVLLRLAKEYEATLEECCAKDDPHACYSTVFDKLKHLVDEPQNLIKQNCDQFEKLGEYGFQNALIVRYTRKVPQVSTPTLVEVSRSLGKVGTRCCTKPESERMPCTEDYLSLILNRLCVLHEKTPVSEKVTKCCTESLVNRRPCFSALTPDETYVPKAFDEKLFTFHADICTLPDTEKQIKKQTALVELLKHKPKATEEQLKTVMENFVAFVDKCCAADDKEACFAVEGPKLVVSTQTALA

B1: hFab 6.5 (Fab, V domains shown)
VH: QVQLVQSGGGLVKPGGSLRLSCAASGFTFTSYAMSWVRQAPGKGLEWVSAISGSGGSTYYADSVKGRFTISRDNPKNTLYLQMNSLRAEDTAVYYCARVRANYYYGMDVWGQGTLVTVSS
VL: LTQSPGTLSLSPGERATLSCRASQSVSSSTLAWYQQKPGQTPRLLIYGASTRATGIPARFSGSGSGTDFTLTISRLEPEDFAVYYCQQYGSSRLTFGGGTKVEIKR
notes: Human Fab from a phage display library, kappa light chain, expressed in the E. coli periplasm; also called clone 6.5; wildtype Fab 6.5
For B1, in the assay with BSA, the binding result was “no binding (tested: 10 ug/ml)”. Further, in assay [1], the equilibrium dissociation constant (Kd) was 22.1 nM, the koff was determined as 0.00207 s⁻¹ and the kon stood at 94000 M⁻¹ s⁻¹.
